Data from US20190359986A1 (ROCHE INNOVATION CENTER COPENHAGEN A S, published 2019).
Numbering of substitutions follows the chain as printed.

Target: TNF-α
Test: cell-based or functional assay

B1: mouse TNFR2 Δ7 (SSO-induced, in serum of SSO 3274 or SSO 3305 treated mice) (receptor)
chain: VPAQVVLTPYKPEPGYECQISQEYYDRKAQMCCAKCPPGQYVKHFCNKTSDTVCADCEASMYTQVWNQFRTCLSCSSSCTTDQVEIRACTKQQNRVCACEAGRYCALKTHSGSCRQCMRLSKCGPGFGVASSRAPNGNVLCKACAPGTFSDTTSSTDVCRPHRICSILAIPGNASTDAVCAPESPTLSAIPRTLYVSQPEPTRSQPLDQEPGPSQTPSILTSLGSTPIIEQSTKGGISLPIEKPSCLQRDAKVPHVPDEKSQDAVGLEQQHLLTTAPSSSSSSLESSASAGDRRAPPGGHPQARVMAEAQGFQEARASSRISDSSHGSHGTHVNVTCIVNVCSSSDHSSQCSSQASATVGDPDAKPSASPKDEQVPFSQEECPSQSPCETTETLQSHEKPLPLGVPDMGMKPSQAGWFDQIAVKVA
- EC50, L929 cytotoxicity assay; SSO 3274 treated mice serum: 0.8 ng/mL
- EC50, L929 cytotoxicity assay; SSO 3305 treated mice serum: 0.6 ng/mL

B2: human TNFR2 Δ7 without His-tag, from clone 1230-1 transfected HeLa cells (receptor)
chain: LPAQVAFTPYAPEPGSTCRLREYYDQTAQMCCSKCSPGQHAKVFCTKTSDTVCDSCEDSTYTQLWNWVPECLSCGSRCSSDQVETQACTREQNRICTCRPGWYCALSKQEGCRLCAPLRKCRPGFGVARPGTETSDVVCKPCAPGTFSNTTSSTDICRPHQICNVVAIPGNASMDAVCTSTSPTRSMAPGAVHLPQPVSTRSQHTQPTPEPSTAPSTSFLLPMGPSPPAEGSTGDFALPVEKPLCLQREAKVPHLPADKARGTQGPEQQHLLITAPSSSSSSLESSASALDRRAPTRNQPQAPGVEASGAGEARASTGSSDSSPGGHGTQVNVTCIVNVCSSSDHSSQCSSQASSTMGDTDSSPSESPKDEQVPFSKEECAFRSQLETPETLLGSTEEKPLPLGVPDAGMKPS
- EC50, L929 cytotoxicity assay; extracellular media from 1230-1 transfected HeLa cells: 1.4 ng/mL

B3: human TNFR2 Δ7 with glutamine 352 changed to arginine, from clone 1138-5 transfected HeLa cells (receptor)
chain: B2 chain with Q330R
- EC50, L929 cytotoxicity assay; extracellular media from 1138-5 transfected HeLa cells: 1.8 ng/mL

B4: human TNFR2 Δ7 with His-tag, from clone 1319-1 transfected HeLa cells (receptor)
chain: LPAQVAFTPYAPEPGSTCRLREYYDQTAQMCCSKCSPGQHAKVFCTKTSDTVCDSCEDSTYTQLWNWVPECLSCGSRCSSDQVETQACTREQNRICTCRPGWYCALSKQEGCRLCAPLRKCRPGFGVARPGTETSDVVCKPCAPGTFSNTTSSTDICRPHQICNVVAIPGNASMDAVCTSTSPTRSMAPGAVHLPQPVSTRSQHTQPTPEPSTAPSTSFLLPMGPSPPAEGSTGDFALPVEKPLCLQREAKVPHLPADKARGTQGPEQQHLLITAPSSSSSSLESSASALDRRAPTRNQPQAPGVEASGAGEARASTGSSDSSPGGHGTQVNVTCIVNVCSSSDHSSQCSSQASSTMGDTDSSPSESPKDEQVPFSKEECAFRSQLETPETLLGSTEEKPLPLGVPDAGMKPSKGQDNSADIQHSGGRSSLEGPRFEGKPIPNPLLGLDSTRTGHHHHHH
modifications: variably glycosylated
- EC50, L929 cytotoxicity assay; extracellular media from 1319-1 transfected HeLa cells: 1.7 ng/mL
